What was measured:
[1] = Test on reducing-power formation; assay type: biochemical; conditions: 1% (w/v) maltotetraose, 0.25 unit/g substrate, 35° C., pH 6.0 (pH 8.4 for A19)
Method: The following test was carried out to study whether the polypeptide having α-isomaltosylglucosaccharide-forming enzyme activity had the ability of forming reducing-power or not. To a 1% (w/v) aqueous solution of maltotetraose as a substrate was added 0.25 unit/g substrate, d.s.b., of either of purified polypeptide specimen of α-isomaltosylglucosaccharide-forming enzyme from Bacillus globisporus C11 obtained by the method in Experiment 1-3, Bacillus globisporus N75 obtained by the method in Experiment2-3, or Arthrobacter globiformis A19 obtained by the method in Experiment 3-3, and incubated at 35° C. and at pH 6.0, except that pH 8.4 was used for the enzyme from Arthrobacter globiformis A19. During the reaction, a portion of each reaction mixture was sampled at prescribed time intervals and measured for reducing power after keeping at 100° C. for 10 minutes to stop the enzymatic reaction. Before and after the enzymatic reaction, the reducing sugar content and total sugar content were respectively quantified by the Somogyi-Nelson method and anthrone-sulfuric acid method. The percentage of forming reducing power was calculated by the following equation: Percentage of forming reducing power (%)=(AR/AT−BR/BT)×100 Equation: • AR: Reducing sugar content after enzymatic reaction. • AT: Total sugar content after enzymatic reaction. • BR: Reducing sugar content before enzymatic reaction. • BT: Total sugar content before enzymatic reaction.

[2] = Isoelectric point by isoelectrophoresis (2% ampholine gel); assay type: physicochemical; conditions: gel containing 2% (w/v) ampholine
Text: Purified specimens of the polypeptide having α-isomaltosylglucosaccharide-forming enzyme activity from Bacillus globisporus C11 obtained by the method in Experiment 1-3, Bacillus globisporus N75 obtained by the method in Experiment 2–3, and Arthrobacter globiformis A19 obtained by the method in Experiment 3-3 were subjected to isoelectrophoresis using a gel containing 2% (w/v) ampholine commercialized by Amersham Biosciences K. K., Tokyo, Japan (old name, Amersham Pharmacia Biotech), and then measured pHs of protein bands and gel to determine their isoelectric points.

[3] = Effect of temperature and pH on α-isomaltosylglucosaccharide-forming enzyme activity; assay type: biochemical; conditions: for Optimum temperature: pH 8.4 for 60 minutes
Method: The two types of enzymatic activities described above were measured as following. The activity of α-isomaltosylglucosaccharide-forming enzyme was measured by the following assay: A substrate solution was prepared by dissolving maltotriose in 100 mM acetate buffer (pH 6.0) to give a concentration of 2% (w/v). A reaction mixture was prepared by mixing 0.5 ml of the substrate solution and 0.5 ml of an enzyme solution, and incubated at 35° C. for 60 minutes. After stopping the reaction by boiling for 10 minutes, the amount of maltose formed in the reaction mixture was determined by high-performance liquid chromatography (HPLC). One unit of α-isomaltosylglucosaccharide-forming activity was defined as the amount of the enzyme that forms one μmole of maltose per minute under the above conditions. HPLC was carried out using “SHODEX KS-801 column”, Showa Denko K. K., Tokyo, Japan, at a column temperature of 60° C. and a flow rate of 0.5 ml/minutes of water, and using “RI-8012”, a differential refractometer commercialized by Tosoh Corporation, Tokyo, Japan.
The effect of temperature and pH on the α-isomaltosylglucosaccharide-forming enzyme activity was examined in accordance with the assay for the α-isomaltosylglucosaccharide-forming enzyme activity under various temperature and pH conditions. The effect of temperature was conducted in the presence or absence of 1 mM Ca^2+. […] The optimum temperature of the polypeptide having α-isomaltosylglucosaccharide-forming enzyme activity from a strain C11 was about 45° C. (in the absence of Ca^2+) and about 50° C. (in the presence of Ca^2+) when incubated at pH 6.0 for 60 minutes, and the optimum pH was about 6.0 when incubated at 35° C. for 60 minutes. The optimum temperature of the polypeptide having α-isomaltosylglucosaccharide-forming enzyme activity from a strain N75 was about 50° C. (in the absence of Ca^2+) and about 55° C. (in the presence of Ca^2+) when incubated at pH 6.0 for 60 minutes, and the optimum pH was about 6.0 when incubated at 35° C. for 60 minutes. The optimum temperature of the polypeptide having α-isomaltosylglucosaccharide-forming enzyme activity from a strain A19 was about 60° C. (in the absence of Ca^2+) and about 65° C. (in the presence of Ca^2+) when incubated at pH 8.4 for 60 min, and the optimum pH was about 8.4 when incubated at 35° C. for 60 minutes.

[4] = Thermal stability and pH stability (residual enzyme activity); assay type: physicochemical; conditions: 20 mM Glycine-NaOH buffer pH 8.0, 60 minutes
Method: The thermal stability of the polypeptide having α-isomaltosylglucosaccharide-forming enzyme activity was determined by incubating the testing polypeptide solution in 20 mM acetate buffer, pH6.0 (in the case of the polypeptide from a strain A19, 20 m M Glycine-NaOH buffer, pH 8.0) at prescribed temperatures for 60 minutes in the presence or absence of 1 mM Ca^2+, cooling with water the resulting polypeptide solutions, and assaying the residual enzyme activity of each solution. The pH stability of the polypeptide having α-isomaltosylglucosaccharide-forming enzyme activity was determined by keeping the testing polypeptide solutions in 50 mM buffer having prescribed pHs at 4° C. for 24 hours, adjusting the pH of each solution to 6.0 (in the case of the polypeptide from a strain A19, pH 8.0), and assaying the residual enzyme activity of each solution. […] The thermal stability of the polypeptide having α-isomaltosylglucosaccharide-forming enzyme activity from a strain C11 was up to about 40° C. (in the absence of Ca^2+) and about 45° C. (in the presence of Ca^2+), and pH stability of about 5.0 to about 10.0. The thermal stability of the polypeptide having α-isomaltosylglucosaccharide-forming enzyme activity from a strain N75 was up to about 45° C. (in the absence of Ca^2+) and about 50° C. (in the presence of Ca^2+), and pH stability of about 5.0 to about 9.0. The thermal stability of the polypeptide having α-isomaltosylglucosaccharide-forming enzyme activity from a strain A19 was up to about 55° C. (in the absence of Ca^2+) and about 60° C. (in the presence of Ca^2+), and pH stability of about 5.0 to about 9.0.

B1: Enzyme of Strain A19: purified polypeptide having α-isomaltosylglucosaccharide-forming enzyme activity from Arthrobacter globiformis A19 (Experiment 3-3); contains SEQ ID NO: 3 (protein)
chain: APLGVQRAQFQSGSSYLVVEVLDDDLVHFELAGGGTAPGTGSPLFTTPQVAKHDYAGPDVFTQTGSVLQTAAMRIEVDPADLCVTATDITRTPNLVLHEACPADLGQAWKGLNITRSAMENAYGLGQQFFTGGSADGDWVGRTRTPGGTYGNAMVFDPENGPVGNTQIPVLFAVGDDNANYGLFVDQLYKQEWNLTGDPWTVRMWGDQVRWYLMSGDDLPDLRHDYMELTGTPPVPPKKAFGLWVSEFGYDNWSEVDNTIAGLRSADFPVDGAMLDVQWFGGVTADSDDTRMGTLDWDTSRFPDPAGKIADLAEDGVGIIPIEESYVGRNLPEHARMAADGYLVRSGCATCPPVYLTGNPWWGKGGMIDWTQPEAGAVWHDEQRQHLVDEGVLGHWLDLGEPEMYDPNDWTAGVIPGKHAHADYHNAYNLLWAQSIADGYADNGVQKRPFMLTRAAAAGIQRHGAGMWSADIGSTMKALGSQQNAQMHMSMSGIDYYGSDIGGFRREMADGDVNELYTQWFADSAWFDTPLRPHTDNLCNCLETSPDSIGDVASNRENLVRRYELAPYYYSLAHRAHQFGEPLAPPLVYYYQNDDHVREMGHQKMLGRDLLIAIVAGEGERERDVYLPAGEWIDIHTNERIQSTGQWIDNVPLWRDGVFTLPAYARAGAIIPKAFVDASTKDITGKREDAAVRNELIATVYADDVASDFTLYEDDGATTAYADGAVRTTQISQSLTNGVATVTVGAASGTYSGAPSTRPTVVELVTDGTQASTVSLGSVPLTEHANKAAFDAASSGWYNAGGGLVVAKAASSSVNTAKTFSFTLGEESVWATFSCENATTTFGQSVYVVGNVPQLGNWSPADAVKLEPSAYPTWTGVVRNLPPSSTVEWKCIKRQEAGLPNTADAWEPGGNNILSTPPSGSAGITTGAF
modifications: Arthrobacter globiformis A19
- Percentage of forming reducing power ([1]; reaction time 0 hour): 0.0%
- Percentage of forming reducing power ([1]; reaction time 1 hour): 0.0%
- Percentage of forming reducing power ([1]; reaction time 2 hours): 0.1%
- Percentage of forming reducing power ([1]; reaction time 4 hours): 0.0%
- Percentage of forming reducing power ([1]; reaction time 8 hours): 0.1%
- Isoelectric point [2]: about 4.3±0.5
- Optimum temperature ([3]; in the absence of Ca2+): about 60 °C
- Optimum temperature ([3]; in the presence of 1 mM Ca2+): about 65 °C
- Optimum pH ([3]; incubated at 35° C. for 60 minutes): about 8.4
- Thermal stability ([4]; in the absence of Ca2+): up to 55 °C
- Thermal stability ([4]; in the presence of 1 mM Ca2+): ≤ 60 °C
